Assay: yeast display, Sf9 membrane polyspecificity reagent, FACS + sequencing; frameworks hold sequencing errors
How it was run: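 Nanobodies came from a synthetic yeast display library in Saccharomyces cerevisiae BJ5465, induced with galactose for 36–48 hours and stained for 1 hour at 4 °C with 10% biotinylated, detergent-solubilized Sf9 membrane reagent. Cells were enriched on streptavidin microbeads and then FACS-sorted, with low and high (top ~1%) gates set on anti-HA fluorescence for expression and streptavidin fluorescence for reagent binding. Each polyreactivity label reflects the gate a clone came from. Genes were amplified by colony PCR, sequenced by MiSeq 2 × 250 and filtered by CDR length.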

| Sequence | polyreactivity (PSR sort gate) |
| --- | --- |
| QVQLVESGGGLVQAGGSLRLSCAASGGTFQSNALGWYRQAPAKERELVASITSRGSSTYYADSVKGRFTISRDNAKNTVYLQMNSLKPEDTAVYYCAKGRSWQIYYKGGIKGGYWGQGTQVTVSS | low polyreactivity |
| QVQLVESGGGLVQAGGSLRLSCVASGLTFYYYAMGWYRQAPGKERELVAAISSGGSTYYADSVKGRFTISRDNAKNTVYLQMNSLKPEDTAVYYCNTYRYRVWGLMYWGQGTQVTLSS | high polyreactivity |
| QVQLVESGGGLVQAGGSLRLSCAASGRTFYIYAMGWYRQAPGKERELVAAISWGSGSTYYADSVKGRFTISRDNAKNTVYLQMNSLKPEDTAVYYCAAEYAYPSEWTYDYWGQGTQVTVSS | low polyreactivity |
| QVQLVESGGGLVQAGGSLRLSCAASGSIFAPYAMGWYRQAPGKERELVATISSIGTSTYYADSVKGRFTISRDNAKNTVYLQMNSLKPEDTAVYYCAADQSGGYPDNYWGQGTQVTVSS | low polyreactivity |
| QVQLVESGGGLVQAGGSLRLSCAASGRIFRRYAMGWYRQAPGKERELVAAISSGGSTYYADSVKGRFTISRDNAKNTVYLQMNSLKPEDTAVYYCNAIVGAYLNYGYWGQGTQVTVSS | low polyreactivity |
| QVQLVESGGGLVQAGGSLRLSCAASGRIYSQYDMGWYRQAPGKESELVAAISGGVGTNYADSVKGRFTISRDNAKNTVYLQMNSLKPEDSAVYYCAADVGYLGRSRGYPSDDYDYWGQGTQVTVSS | low polyreactivity |
| QVQLVESGGGLVQARGSLRLSCAASGRIFVINAMGWYRQAPGKERELVAAISQSGGSTYYADSVKGRFTISRDNAKNTVYLQMNSLKPEDTAVYYCNALSNVPYDYWGQGTLVTVSS | low polyreactivity |
| QVQLVESGGGLVQAGGSLRLSCAASGRIFAKNTMGWYRQAPGKERELVAAISRSGGRTYYADSVKGRFTISRDNAKNTVYLQMNSLKPEDTAVYYCSKDVKGSYAYDSWGQGTQVTVSS | high polyreactivity |
| QVQLVESGGGLVQAGGSLRLSCAASGFTFFYYVMGWYRQAPGKERELVAAITRGGSTYYADSVKGRFTISRDNAKNTVYLQMNSLKPEDTAVYYCNVAEPGYYYGYGDYGMDYWGQGTQVTVSS | high polyreactivity |
| QVQLVESGGGLVQAGGSLRLSCAASGRTFYTNAKGWYRQAPGKERELVAAISSDSSTNYADSVKGRLTISRDNAKNTVYLQMNSLKPEDTAVYYCNKVRQGWADYEYWGQGSQVTVSS | low polyreactivity |
| QVQLEESGGGLVQAGGSLRLSCAASGSILTDNAMGWYRQAPGKERELVAANSYSGASTYYADSVKGRFTISRDNAKNTVYLQMNSLKPEDTAVFYCAARYVSATPQLKARVRYYYWGQGTQVTVSS | high polyreactivity |
| QVQIVESGGGLVQAGGSLRLSCAASGSTFPTNAMGWYRQAPGKERELVAAITSTGSTYADSVKGRFTISRDNAKNTVYLQMNSLKPEDTAVYYCAADTQWTTPYDYWGQGTQVTVSS | low polyreactivity |
| QVQLVESGGGLVQAGGSLRLSCAASGLTFWYYAMGRYRHAPRKERELVATITWSGRTYYADSVKGRFTISRDNAKNTVYLQMNSLKTEDTAVYYCNAVKGRLQYSYDYWGQGTQVTVSS | high polyreactivity |
| QVQLVESGGGLVQAGGSLRLSCAASGSIFGFYAMGWYRQAPGKERELVAAITRSGDSTYADSVKGRFTISRDNAKNTVYLQMNSLKPEDTAVYYCATYWQYRYDYWGQGTQVTVSS | low polyreactivity |
| QVQLVESGGGLVQAGGSLRLSCAASGRTFVINAMGWYRQAPGKERELVAAISRGGSTNYADSVKGRFTISRDNAKNTVYLQMNSLKPEDTAVYYCNADYPNWWSPFDYWGQGTQVTVSS | low polyreactivity |
| QVQLVESGGGLVQAGGSLRLSCAASGSTFFSYDMGWYRQAPGKERELVATISTSVGRTYYADSVKGRFTISRDNAKNTVYLLMNSLKPEDTAVYYCNSDSLGYLYNYYWPAYDHWGQGTQVTVSS | low polyreactivity |
| QVQLVQSGGGLVQAGGSLRLSCADSGFIFFTNAMGRYRQAPGQDREFVAAISDSSGSTYYADSVKGRFTISRDNAKNTVYLQMNSLKPEDTAVYYCAAEYPQVTIIGYYYYWGQGTQVTVSS | low polyreactivity |

From the nanobody polyreactivity screen of Harvey et al. (2022)
